Here are results for seven molecules from patent US7786071B2 (priority 2003, dated 2010).

Like-named read-outs stand apart in the source and are kept apart here.

For data set [1] the following is noted: read-out: KM for L-HcyT hydrolysis; cited from earlier work.
For data set [2] the following is noted: read-out: Kd for the first (higher affinity) calcium; cited from earlier work.
The conditions of data set [3]: read-out: KM(Paraoxon); cited from earlier work.
The conditions of data set [4]: read-out: KM(PheAc); cited from earlier work.
Data set [5] is classed as biochemical. The following applies: read-out: 2-Naphthyl acetate KM.
Data set [6] is classed as biochemical.
Data set [7] is classed as biochemical. As to conditions: read-out: Dihydrocoumarin KM.
Data set [8] is classed as biochemical. As to conditions: pH 8; for Km: read-out: KM(Paraoxon).
Data set [9] is classed as biochemical. This is another data set of the same source.
Data set [10] is classed as biochemical. As to conditions: read-out: DEPCyC hydrolysis KM.
Data set [11] is classed as biochemical. The following applies: read-out: KM for L-Hcy hydrolysis.
[12] abbreviates: read-out: Phenylacetate hydrolysis KM.

B1: hPON1: wild-type human PON1; kinetic values for enzyme purified from sera; SEQ ID NO: 24, 36 (protein, listed as Homo sapiens)
chain: MAKLIALTLLGMGLALFRNHQSSYQTRLNALREVQPVELPNCNLVKGIETGSEDLEILPNGLAFISSGLKYPGIKSFNPNSPGKILLMDLNEEDPTVLELGITGSKFDVSSFNPHGISTFTDEDNAMYLLVVNHPDAKSTVELFKFQEEEKSLLHLKTIRHKLLPNLNDIVAVGPEHFYGTNDHYFLDPYLQSWEMYLGLAWSYVVYYSPSEVRVVAEGFDFANGINISPDGKYVYIAELLAHKIHVYEKHANWTLTPLKSLDFNTLVDNISVDPETGDLWVGCHPNGMKIFFYDSENPPASEVLRIQNILTEEPKVTQVYAENGTVLQGSTVASVYKGKLLIGTVFHKALYCEL
For orientation: Km means the substrate concentration at which the rate is half of its maximum. By Kd is commonly meant the constant that tells how readily two partners part at equilibrium. For the molecule B1, the figures for the Michaelis constant (Km) in data set [1], in data set [3] and in [4] were 23000 µM, 540 µM and 420 µM, respectively. The equilibrium dissociation constant (Kd) in [2] was 360 nM.

B2: G1A5: first-round directly evolved PON1 variant, thioredoxin-fused; SEQ ID NO: 25 (DNA), 57 (protein) (protein)
chain: MAKLTALTLLGLGLALFDGQKSSFQTRFNVHREVTPVELPNCNLVKGIDNGSEDLEILPNGLAFISSGLKYPGIMSFDPDKSGKILLMDLNEEDPVVLELGITGNTLDISSFNPHGISTFIDEDNTVYLLVVNHPDSSSTVEVFKFQEKEKSLLHLKTIRHKLLPSVNDIVAVGPEHFYATNDHYFIDPYLKSWEMHLGLAWSFVTYYSPNDVRVVAEGFDFANGINISPDGKYVYIAELLAHKIHVYEKHANWTLTPLKSLDFNTLVDNISVDPVTGDLWVGCHPNGMRIFYYDPENPPGSEVLRIQNILSKEPKVTVVYAENGTVLQGTTVASVYKGKLLIGTVFHKALYCEL
modifications: thioredoxin-fused; In vitro evolved PON variant G1A5
Take B2: the Km was found to be 80 µM in [5]; 390 µM in data set [6] (pH 8, read-out: KM(PheAc)); 120 µM in data set [7]; 85 µM in data set [8]. In addition, the “kcat (PheAc)” value in data set [6] (pH 8) is 833 s⁻¹. For the same molecule, in [8], the “kcat(Paraoxon)” value was 1.16 s⁻¹.

B3: RabPON1: wild-type rabbit PON1, GenBank Accession No. AF220943 (protein, listed as Rattus norvegicus)
chain: MAKLLGLTLVGLVLALYKNHRSSYQTRLNAFREVTPVDLPNCTLVKGIEAGAEDLEILPNGLTFFSTGLKYPGIKSFDPSKPGKILLMDLNEKEPAVSELAIMGNTLDMSSFNPHGISTFIDEDNTVYLLVVSHPDSSSTVEVFKFQEEERSLLHLKTITHELLPSINDIAAVGPESFYATNDHYFADPYLRSWEMYLGLSWSNVVYYSPDKVRVVADGFDFANGIGISLDGKYVYIAELLAHKIHVYEKHANWTLTPLKVLSFDTLVDNISVDPVTGDLWVGCHPNGMRIFFYDSENPPGSEVLRIQSILSEDPKVTVVYAENGTVLQGTTVAAVYKGKLLIGTVFHRALCCDL
In the case of B3, the equilibrium dissociation constant (Kd) in data set [2] was 50 nM.

B4: 7HY: G3C9-derived PON1 variant, mutations F292V, Y293D, I109M; SEQ ID NO: 74, 75 (protein)
chain: MAKLTALTLLGLGLALFDGQKSSFQTRFNVHREVTPVELPNCNLVKGVDNGSEDLEILPNGLAFISSGLKYPGIMSFDPDKSGKILLMDLNEEDPVVLELGITGNTLDMSSFNPHGISTFTDEDNTVYLLVVNHPDSSSTVEVFKFQEEEKSLLHLKTIRHKLLPSVNDIVAVGPEHFYATNDHYFADPYLKSWEMHLGLAWSFVTYYSPNDVRVVAEGFDFANGINISPDGKYVYIAELLAHKIHVYEKHANWTLTPLKSLDFDTLVDNISVDPVTGDLWVGCHPNGMRIVDYDPKNPPGSEVLRIQDILSEEPKVTVVYAENGTVLQGSTVAAVYKGKLLIGTVFHKALYCEL
modifications: In vitro evolved PON variant 7HY
Consider B4, for which, in data set [9], the “shift in substrate selectivity” value is given as “up to 4,600 fold”.

B5: G3C9.49: G3C9 variant with mutations G19R, S193P, N287D and V346A; SEQ ID NO: 64, 65 (protein)
chain: MAKLTALTLLGLGLALFDRQKSSFQTRFNVHREVTPVELPNCNLVKGVDNGSEDLEILPNGLAFISSGLKYPGIMSFDPDKSGKILLMDLNEEDPVVLELGITGNTLDISSFNPHGISTFTDEDNTVYLLVVNHPDSSSTVEVFKFQEEEKSLLHLKTIRHKLLPSVNDIVAVGPEHFYATNDHYFADPYLKPWEMHLGLAWSFVTYYSPNDVRVVAEGFDFANGINISPDGKYVYIAELLAHKIHVYEKHANWTLTPLKSLDFDTLVDNISVDPVTGDLWVGCHPDGMRIFYYDPKNPPGSEVLRIQDILSEEPKVTVVYAENGTVLQGSTVAAVYKGKLLIGTAFHKALYCEL
modifications: In vitro evolved PON variant G3C9.49
On to B5, for which the Km in data set [10] is 80 µM; in [6] (setting [12]), 300 µM.

B6: G3C9: third-round highly soluble rPON1 variant without tags, wt-like activity; SEQ ID NO: 55 (DNA), 56 (protein) (protein)
chain: MAKLTALTLLGLGLALFDGQKSSFQTRFNVHREVTPVELPNCNLVKGVDNGSEDLEILPNGLAFISSGLKYPGIMSFDPDKSGKILLMDLNEEDPVVLELGITGNTLDISSFNPHGISTFTDEDNTVYLLVVNHPDSSSTVEVFKFQEEEKSLLHLKTIRHKLLPSVNDIVAVGPEHFYATNDHYFADPYLKSWEMHLGLAWSFVTYYSPNDVRVVAEGFDFANGINISPDGKYVYIAELLAHKIHVYEKHANWTLTPLKSLDFDTLVDNISVDPVTGDLWVGCHPNGMRIFYYDPKNPPGSEVLRIQDILSEEPKVTVVYAENGTVLQGSTVAAVYKGKLLIGTVFHKALYCEL
modifications: In vitro evolved PON variant G3C9
With B6, the Km turned out to be 70 µM in data set [10]; 330 µM in data set [6] (pH 8, read-out: KM(PheAc)); 330 µM in data set [6] (setting [12]); 94 µM in data set [8]. Further, the “kcat (PheAc)” value in data set [6] (pH 8) came to 789 s⁻¹. In addition, the “kcat(Paraoxon)” value in data set [8] came out at 1.1 s⁻¹.

B7: G3H8: third-round rPON1 variant, unmodified 355 aa protein without tags; SEQ ID NO: 29 (DNA), 61 (protein) (protein)
chain: MAKLTAPTLLGLGLALFDRQKSSFQTRFNVHREVTPVELPNCNLVKGIDNGSEDLEILPNGLAFISSGLKYPGIMSFDPDKSGKILLMDLNEEDPVVLELGITGSTFDLSSFNPHGISTFTDEDNTVYLLVVNHPDSSSTVEVFKFQEKERSLLHLKTIRHKLLPSVNDIVAVGPESFYATNDHYFADPYLKSWEMHLGLAWSFVTYYSPNDVRVVAEGFDFANGINISPDGKYVYIAELLAHKIHVYEKHANWTLTPLKSLDFNTLVDNISVDPVTGDLWVGCHPNGMRIFYYDPENPPGSEVLRIQDILSKEPKVTVVYAENGTVLQGSTVAAVYKGKLLIGTVFHKALYCDL
modifications: In vitro evolved PON variant G3H8
For the molecule B7, the Michaelis-Menten constant (Km) is 110 µM in [5]; 320 µM in data set [6] (pH 8, read-out: KM(PheAc)); 76 µM in data set [7]; 88 µM in data set [8]; around 19000 µM in data set [11]. For the same molecule, the “kcat (PheAc)” value in data set [6] (pH 8) came out at 1018 s⁻¹. Also, the “kcat(Paraoxon)” value in data set [8] came out at 1.2 s⁻¹.
